The values that follow come from patent publication US5674842A, “Growth inhibitory peptide” (Health Research, Incorporated, priority 1994, dated 1997).

In data set [1] the test system is estrogen-stimulated growth of mouse uterus. The settings on record: full-length transformed AFP molecule, see references cited; cited from earlier work.
Data set [2] in a line: Retention of inhibitory activity on storage. It is filed as physicochemical. Particulars: transformed human AFP preparation.

B1: full-length transformed AFP molecule: full-length alpha-fetoprotein transformed by incubation with estradiol to an inhibitor of estrogen-stimulated growth (protein, UniProt P02771 1-609, looked up)
chain: MKWVESIFLIFLLNFTESRTLHRNEYGIASILDSYQCTAEISLADLATIFFAQFVQEATYKEVSKMVKDALTAIEKPTGDEQSSGCLENQLPAFLEELCHEKEILEKYGHSDCCSQSEEGRHNCFLAHKKPTPASIPLFQVPEPVTSCEAYEEDRETFMNKFIYEIARRHPFLYAPTILLWAARYDKIIPSCCKAENAVECFQTKAATVTKELRESSLLNQHACAVMKNFGTRTFQAITVTKLSQKFTKVNFTEIQKLVLDVAHVHEHCCRGDVLDCLQDGEKIMSYICSQQDTLSNKITECCKLTTLERGQCIIHAENDEKPEGLSPNLNRFLGDRDFNQFSSGEKNIFLASFVHEYSRRHPQLAVSVILRVAKGYQELLEKCFQTENPLECQDKGEEELQKYIQESQALAKRSCGLFQKLGEYYLQNAFLVAYTKKAPQLTSSELMAITRKMAATAATCCQLSEDKLLACGEGAADIIIGHLCIRHEMTPVNPGVGQCCTSSYANRRPCFSSLVVDETYVPPAFSDDKFIFHKDLCQAQGVALQTMKQEFLINLVKQKPQITEEQLEAVIADFSGLLEKCCQGQEQEVCFAEEGQKLISKTRAALGV
modifications: full-length estradiol-transformed
Consider B1, for which the “inhibition of estrogen-stimulated growth” value in data set [1] was 20-40%. The “time activity is retained” value in data set [2] is recorded as “one”.
